# From article PMC3004248
# Target: one-twelfth protomer of the giant extracellular haemoglobin from Glossoscolex paulistus (cyanomet HbGp) (Glossoscolex paulistus)
# Assay: crystal structure; cyanomet-HbGp, whole particle; crystals from 1.2 M sodium citrate, 2.5 mM CaCl2, 50 mM Tris-HCl pH 7.5; space group I222, data to 3.2 Å; molecular replacement with the one-twelfth protomer of L. terrestris erythrocruorin (2gtl); preliminary, not refined
substance,measurement,value
one-twelfth protomer of the giant extracellular haemoglobin from Glossoscolex paulistus (cyanomet HbGp) (complex),stoichiometry N (protomers per full particle),12
